# Biological target: Cdk4/cyclin D1 complex (UniProt P11802)
row,maximal extent of Cdk4 inhibition at saturating concentrations,Substance
1,95%,"p27-KID^(pY88, Y89F) (domain or fragment)"
2,80%,"p27-KID^(pY74, pY88, Y89F) (domain or fragment)"
3,98%,"p27-KID^(Y74E, Y89F) (domain or fragment)"
